Substrate: C[C@H](O)C(=O)O
Test: cells, lysate or membranes named
Assay type: biochemical, Staphylococcus aureus
Settings: 1.4 mM menaquinone, 5 μM FAD, phosphatidylethanolamine vesicles, NBT

B1: Lqo (Mqo2, SACOL2623) (Staphylococcus aureus subsp. aureus COL) (protein)
chain: MAKSNSKDIVLIGAGVLSTTFGSMLKEIEPDWNIHVYERLDRPAIESSNERNNAGTGHAALCELNYTVLQPDGSIDIEKAKVINEEFEISKQFWGHLVKSGSIENPREFINPLPHISYVRGKNNVKFLKDRYEAMKAFPMFDNIEYTEDIEVMKKWIPLMMKGREDNPGIMAASKIDEGTDVNFGELTRKMAKSIEAHPNATVQFNHEVVDFEQLSNGQWEVTVKNRLTGEKFKQVTDYVFIGAGGGAIPLLQKTGIPESKHLGGFPISGQFLACTNPQVIEQHDAKVYGKEPPGTPPMTVPHLDTRYIDGQRTLLFGPFANVGPKFLKNGSNLDLFKSVKTYNITTLLAAAVKNLPLIKYSFDQVIMTKEGCMNHLRTFYPEARNEDWQLYTAGKRVQVIKDTPEHGKGFIQFGTEVVNSQDHTVIALLGESPGASTSVSVALEVLERNFPEYKTEWAPKIKKMIPSYGESLIEDEKLMRKIRKQTSKDLELGYYEN
  Km: 330 µM
